Assay results from patent publication US20060228367A1 (AstraZeneca / MedImmune, published 2006).
Read-outs that look alike come from different tables or passages of the source.

B1: monoclonal antibody 168-A5-338-284 (antibody, V domains shown)
VH: QVQLKESGPGLVAPSQSLSITCTVSGFSLSSYGVHWVRQSPGKGLEWLGVMWGDGSTNYHSGLISRLTISKDSSKSQVFLKLNSLQTDDTATYYCGKSFGVYAVDYWGQGTSVTVSS
VL: DIQMTQTTSSLSASLGDRVTINCRASQDVNNYLNWYQQKPDGTVKLLIYYTSMLHSGVPSRFSGSGSETDYSLTITNLEQEDIATYFCQQGETLPPTFGGGTKVEIK
notes: Mouse hybridoma antibody purified on protein A; also called mAb338
B2: monoclonal antibody 168-A5-234-114 (antibody, V domains shown)
VH: QVQLKESGPGLVAPSQSLSITCTVSGFSLTDYGVSWVRQPPGKGLEWLGVIWGDGNTNYHSALISRLSISKDNSKSQVFLKLNSLQTDDTATYYCGKSFGVYAMDYWGQGTSVTVSS
VL: EIQMTQTTSSLSASLGDRVTINCRTSQDTNNYINWYQQKPDGTVKLLIYYTSMLHSGVPSRFSGSGSGTDYSLTISNLEQEDIATYFCQQGDTLPPTFGGGTKVEIK
notes: Mouse hybridoma antibody purified on protein A; also called mAb234; mAb 234

Assays:
[1] = target: T1, soluble histidine-tagged hMPV F protein from NL\1\00 (human metapneumovirus, isolate NL/1/00, UniProt Q6WB98 19-490); test: Biacore SPR; F-00-1 immobilised at 134 RU, mAb injected
T1 construct: the reverse primer ends the F part at ...AEKGNTG before the tag; also called sFNL\1\00; soluble FNL\1\00

[2] = target: T1, soluble histidine-tagged hMPV F protein …; test: Biacore 3000 SPR; antigen immobilised on CM5 at 134 RU, mAb injected
[3] = target: T2, soluble histidine-tagged hMPV F protein from NL\1\99 (human metapneumovirus, isolate NL/1/99, UniProt Q6WB98 19-490); test: Biacore SPR; F-99-1 immobilised at 300 RU, mAb injected
T2 construct: also called sFNL\1\99; soluble FNL\1\99

[4] = target: T2, soluble histidine-tagged hMPV F protein …; test: Biacore SPR (summary table)
[5] = target: T1, soluble histidine-tagged hMPV F protein …; test: Biacore SPR (summary table)
[6] = target: T3, F protein of hMPV strain NL\1\99 (subtype B1), on virus (human metapneumovirus, isolate NL/1/99, UniProt Q6WB98 19-539); test: cell-based or functional assay
[7] = target: T4, F protein of hMPV strain NL\1\00 (subtype A1), on virus (human metapneumovirus, isolate NL/1/00, UniProt Q6WB98 19-538); test: cell-based or functional assay
[8] = target: T5, F protein of hMPV strain NL\17\00 (subtype A2), on virus (human metapneumovirus, isolate NL/17/00, UniProt Q6WB98 19-539); test: cell-based or functional assay
[9] = target: T3, F protein of hMPV strain NL\1\99 …; test: cell-based or functional assay; remark: listed apart in the source
[10] = target: T4, F protein of hMPV strain NL\1\00 …; test: cell-based or functional assay; remark: listed apart in the source
[11] = target: T6, F protein of hMPV strain NL\1\94 (subtype B2), on virus (human metapneumovirus, isolate NL/1/94, UniProt Q6WB98 19-539); test: cell-based or functional assay
[12] = target: T2, soluble histidine-tagged hMPV F protein …; test: Biacore SPR; average of the two F-99-1 surfaces
[13] = target: T2, soluble histidine-tagged hMPV F protein …; test: Biacore SPR (comparison table; virus type B)
[14] = target: T1, soluble histidine-tagged hMPV F protein …; test: Biacore SPR (comparison table; virus type A)
[15] = target: T5, F protein of hMPV strain NL\17\00 …; test: cell-based or functional assay; remark: listed apart in the source
[16] = target: T3, F protein of hMPV strain NL\1\99 …; test: cell-based or functional assay; remark: listed apart in the source
[17] = target: T4, F protein of hMPV strain NL\1\00 …; test: cell-based or functional assay; remark: listed apart in the source
[18] = target: T6, F protein of hMPV strain NL\1\94 …; test: cell-based or functional assay; remark: listed apart in the source
[19] = target: T5, F protein of hMPV strain NL\17\00 …; test: cell-based or functional assay; remark: listed apart in the source
[20] = target: T3, F protein of hMPV strain NL\1\99 …; test: cell-based or functional assay; remark: listed apart in the source
[21] = target: T4, F protein of hMPV strain NL\1\00 …; test: cell-based or functional assay; remark: listed apart in the source
[22] = target: T6, F protein of hMPV strain NL\1\94 …; test: cell-based or functional assay; remark: listed apart in the source
[23] = target: T2, soluble histidine-tagged hMPV F protein …; test: Biacore SPR; F-99-1 immobilised at 80 RU, mAb injected
[24] = target: T2, soluble histidine-tagged hMPV F protein …; test: Biacore 3000 SPR; antigen immobilised on CM5 at 80 RU, mAb injected
[25] = target: T2, soluble histidine-tagged hMPV F protein …; test: Biacore SPR; F-99-1 immobilised at 146 RU, mAb injected

| Binder | Kd [1] | koff [1] | kon [1] | Kd [2] | koff [2] | kon [2] | Kd [4] | Kd [5] | IC50 in vitro neutralization [6] | IC50 in vitro neutralization [7] | IC50 (virus neutralization) [8] | IC50 (virus neutralization) [9] | IC50 (virus neutralization) [10] | IC50 (virus neutralization) [11] | Kd [12] | koff [12] | kon [12] | Kd [13] | kon [13] | Kd [14] | other results |
| --- | --- | --- | --- | --- | --- | --- | --- | --- | --- | --- | --- | --- | --- | --- | --- | --- | --- | --- | --- | --- | --- |
| B1 | 1.74 nM | 0.000276 s⁻¹ | 158000 M⁻¹ s⁻¹ | 1.74 nM | 0.000276 s⁻¹ | 158000 M⁻¹ s⁻¹ | 1.4 nM | 1.7 nM | 0.03 mg/L | 0.4 mg/L | 0.8 mg/L | 0.03 mg/L | 0.38 mg/L | 0.17 mg/L | 1.73 nM | 0.000282 s⁻¹ | 163000 M⁻¹ s⁻¹ | 1.42 nM | 192000 M⁻¹ s⁻¹ | 1.74 nM | Kd [3]: 2.18 nM; koff [3]: 0.000293 s⁻¹; kon [3]: 134000 M⁻¹ s⁻¹; kon [14]: 158000 M⁻¹ s⁻¹; IC50 (neutralization titer) [15]: 0.81 mg/L; IC50 (neutralization titer) [16]: 0.03 mg/L; IC50 (neutralization titer) [17]: 0.375 mg/L; IC50 (neutralization titer) [18]: 0.165 mg/L; IC50 (neutralization titer) [19]: 5.4 nM; IC50 (neutralization titer) [20]: 0.2 nM; IC50 (neutralization titer) [21]: 2.5 nM; IC50 (neutralization titer) [22]: 1.1 nM; Kd [23]: 1.42 nM; koff [23]: 0.000272 s⁻¹; kon [23]: 192000 M⁻¹ s⁻¹; Kd [24]: 1.42 nM; koff [24]: 0.000272 s⁻¹; kon [24]: 192000 M⁻¹ s⁻¹ |
| B2 | 4.49 nM | 0.000352 s⁻¹ | 78300 M⁻¹ s⁻¹ | 4.49 nM | 0.000352 s⁻¹ | 78300 M⁻¹ s⁻¹ | 2.4 nM | 4.5 nM | 0.01 mg/L | 0.6 mg/L | 1.2 mg/L | 0.01 mg/L | 0.59 mg/L | 0.18 mg/L | 2.83 nM | 0.000382 s⁻¹ | 135000 M⁻¹ s⁻¹ | 2.41 nM | 192000 M⁻¹ s⁻¹ | 4.49 nM | Kd [25]: 3.83 nM; koff [25]: 0.000302 s⁻¹; kon [25]: 78900 M⁻¹ s⁻¹; kon [14]: 783000 M⁻¹ s⁻¹; IC50 (neutralization titer) [15]: 1.16 mg/L; IC50 (neutralization titer) [16]: 0.0075 mg/L; IC50 (neutralization titer) [17]: 0.585 mg/L; IC50 (neutralization titer) [18]: 0.18 mg/L; IC50 (neutralization titer) [19]: 7.7 nM; IC50 (neutralization titer) [20]: 0.05 nM; IC50 (neutralization titer) [21]: 3.9 nM; IC50 (neutralization titer) [22]: 1.2 nM; Kd [23]: 2.41 nM; koff [23]: 0.000463 s⁻¹; kon [23]: 192000 M⁻¹ s⁻¹; Kd [24]: 2.41 nM; koff [24]: 0.000463 s⁻¹; kon [24]: 192000 M⁻¹ s⁻¹ |
